pIC50: −log10 of the molar value. Residues, ends and D or L forms follow the SMILES beside them.
Legend:
[1] = biological target: T1, HLA-DRB1*15:02 (Homo sapiens, UniProt P01903+P01911, V115G); test: Peptide/HLA-DR binding, competitive ELISA; conditions: for Relative binding affinity of peptide to HLA-DR molecules DRB1*1502: ratio IC50 of peptide / IC50 of reference peptide TFR 607–620, lower = higher affinity, ratio 20 or less high, 20–100 moderate, three independent experiments
T1 construct: HLA-DR heterodimers were purified from homozygous Epstein–Barr virus B-lymphoblastoid cell lines; host or cells: homozygous EBV B-lymphoblastoid cell line
Description: (§1) HLA-DR heterodimers were purified from homozygous Epstein–Barr virus B-lymphoblastoid cell lines (HPA Culture Collections, Salisbury, UK) by affinity chromatography with the monomorphic HLA-DRα monoclonal antibody, L243.[29],[30] Binding of the SseB peptide panel to the HLA-DR molecules HLA-DRB1*01:01, 03:01, 04:01, 07:01, 09:01, 11:01, 12:02, 15:01, 15:02 was assessed by competitive ELISA, as previously described, using an automated workstation.[29],[30] We evaluated the peptide concentration able to prevent binding of 50% of the labelled peptide (IC50). Data were expressed as relative affinity: ratio of the IC50 of the peptide to the IC50 of the reference peptide, which is a high binder to the HLA class II molecule. Unlabelled forms of the biotinylated peptides were used as reference peptides.

[2] = biological target: T2, HLA-DRB1*09:01 (Homo sapiens, UniProt P01903+P01911, A100R/A103E/D57H/D86V/F55Y/F60I/F76Y/I96F/K127E/L162R/M171V/P40D/Q125H/Q99R/R33Q/R42F/S133A/S66N/T210M/V115G/W38K/Y107V/Y59G/Y89S); test: Peptide/HLA-DR binding, competitive ELISA; conditions: for Relative binding affinity of peptide to HLA-DR molecules DRB1*0901: ratio IC50 of peptide / IC50 of reference peptide CTP 427–441, lower = higher affinity, ratio 20 or less high, 20–100 moderate, three independent experiments
T2 construct: HLA-DR heterodimers were purified from homozygous Epstein–Barr virus B-lymphoblastoid cell lines; host or cells: homozygous EBV B-lymphoblastoid cell line
Description: as §1

[3] = biological target: HLA-DRB1*07:01 (Homo sapiens, UniProt P01903+P01911, A100R/A102G/A103Q/D57E/D86V/E43K/F76Y/K127E/L162R/M171V/P40G/Q125H/Q99D/R33Q/R42Y/R54Q/S133A/S66F/T210M/V115G/Y107V/Y59L/Y89S); conditions: competitive ELISA; ratio IC50 of peptide / IC50 of reference peptide HA 306–318; lower = higher affinity; ratio 20 or less high, 20–100 moderate; three independent experiments
[4] = biological target: HLA-DRB1*04:01 (Homo sapiens, UniProt P01903+P01911, A100K/A169T/F76Y/I96L/K127E/L162R/M171V/N62H/P40V/Q125Y/R42H/S133A/S149N/S66Y/V115G/V209L/W38E); conditions: competitive ELISA; ratio IC50 of peptide / IC50 of reference peptide HA 306–318; lower = higher affinity; ratio 20 or less high, 20–100 moderate; three independent experiments
[5] = biological target: T3, HLA-DRB1*03:01 (Homo sapiens, UniProt P01903+P01911, A100K/A102G/A103R/A169T/F55Y/I96L/K41T/L162R/M171V/P40S/Q125H/Q178H/Q39Y/R42S/S66N/T106N/T262R/W38E/Y61H); test: Peptide/HLA-DR binding, competitive ELISA; conditions: ratio IC50 of peptide / IC50 of reference peptide MT2-16, lower = higher affinity, ratio 20 or less high, 20–100 moderate, three independent experiments
T3 construct: HLA-DR heterodimers were purified from homozygous Epstein–Barr virus B-lymphoblastoid cell lines; host or cells: homozygous EBV B-lymphoblastoid cell line
Description: as §1

[6] = biological target: HLA-DRB1*12:02 (Homo sapiens, UniProt P01903+P01911, A100R/A169T/D57E/D86V/F55L/H45Y/I96F/K41T/L162R/M171V/P40S/Q125H/Q178H/Q39Y/Q99D/R42G/S66L/T262R/V114A/V67L/W38E/Y59H/Y61H/Y89S); test: Peptide/HLA-DR binding, competitive ELISA; conditions: for Relative binding affinity of peptide to HLA-DR molecules DRB1*1202: ratio IC50 of peptide / IC50 of reference peptide TFR 141–155, lower = higher affinity, ratio 20 or less high, 20–100 moderate, three independent experiments
Description: as §1

[7] = biological target: T4, HLA-DRB1*15:01 (Homo sapiens, UniProt P01903+P01911); test: Peptide/HLA-DR binding, competitive ELISA; conditions: for Relative binding affinity of peptide to HLA-DR molecules DRB1*1501: ratio IC50 of peptide / IC50 of reference peptide A3 152–166, lower = higher affinity, ratio 20 or less high, 20–100 moderate, three independent experiments
T4 construct: HLA-DR heterodimers were purified from homozygous Epstein–Barr virus B-lymphoblastoid cell lines; host or cells: homozygous EBV B-lymphoblastoid cell line
Description: as §1

[8] = biological target: HLA-DRB1*11:01 (Homo sapiens, UniProt P01903+P01911, A100R/A169T/A87E/I96F/K41T/L162R/M171V/P40S/Q125H/Q178H/Q39Y/Q99D/R42S/S66Y/T262R/V115G/W38E); conditions: competitive ELISA; ratio IC50 of peptide / IC50 of reference peptide HA 306–318; lower = higher affinity; ratio 20 or less high, 20–100 moderate; three independent experiments
[9] = biological target: HLA-DRB1*01:01 (Homo sapiens, UniProt P01903+P01911, A100R/D57E/F55L/F60I/F76Y/I96L/L162R/M171V/P40L/Q125E/R42F/V115G/Y59C); conditions: competitive ELISA; ratio IC50 of peptide / IC50 of reference peptide HA 306–318; lower = higher affinity; ratio 20 or less high, 20–100 moderate; three independent experiments

Molecule: CC(C)C[C@H](NC(=O)[C@H](CC(C)C)NC(=O)[C@H](CCC(N)=O)NC(=O)[C@H](CO)NC(=O)[C@H](CC(N)=O)NC(=O)[C@H](Cc1ccc(O)cc1)NC(=O)[C@H](CCCNC(=N)N)NC(=O)[C@H](CCC(=O)O)NC(=O)[C@H](Cc1ccc(O)cc1)NC(=O)[C@H](CC(=O)O)NC(=O)[C@H](CC(C)C)NC(=O)[C@H](CC(N)=O)NC(=O)[C@@H](N)CC(C)C)C(=O)N[C@@H](CO)C(=O)O [TFR 607–620, reference compound] (H-LNLDYERYNSQLLS-OH)
- pIC50 ([1]; DRB1*15:02, unlabelled form of the biotinylated peptide, read-out: IC50 of reference peptide): 8.52

Molecule: CC[C@H](C)[C@H](NC(=O)[C@H](CCCNC(=N)N)NC(=O)[C@H](CO)NC(=O)[C@@H](NC(=O)[C@H](C)NC(=O)[C@@H]1CCCN1C(=O)[C@H](CC(N)=O)NC(=O)[C@H](Cc1ccc(O)cc1)NC(=O)[C@H](Cc1ccccc1)NC(=O)CNC(=O)[C@H](Cc1c[nH]cn1)NC(=O)[C@@H](N)C(C)C)C(C)C)C(=O)N[C@H](C(=O)N[C@@H](CCC(=O)O)C(=O)N[C@@H](C)C(=O)O)C(C)C [CTP 427–441, reference compound] (H-VHGFYNPAVSRIVEA-OH)
- pIC50 ([2]; DRB1*0901, unlabelled form of the biotinylated peptide, read-out: IC50 of reference peptide): 7.82

Molecule: 17: SseB overlapping library peptide, residues 161–180 (TIQKMSQELNAVLTQLTGLI) [Peptide 17]
- Relative binding affinity of peptide to HLA-DR molecules DRB1*0701 [3]: 8
- Relative binding affinity of peptide to HLA-DR molecules DRB1*0401 [4]: > 145
- Relative binding affinity of peptide to HLA-DR molecules DRB1*0301 [5]: > 119
- Relative binding affinity of peptide to HLA-DR molecules DRB1*1202 [6]: > 136
- Relative binding affinity of peptide to HLA-DR molecules DRB1*0901 [2]: > 689
- Relative binding affinity of peptide to HLA-DR molecules DRB1*1502 [1]: > 3 333
- Relative binding affinity of peptide to HLA-DR molecules DRB1*1501 [7]: > 270
- Relative binding affinity of peptide to HLA-DR molecules DRB1*1101 [8]: > 278
- Relative binding affinity of peptide to HLA-DR molecules DRB1*0101 [9]: 18

Molecule: 12: SseB overlapping library peptide, residues 111–130 (GILIDGMTIDDYMAKYGDHG) [Peptide 12]
- Relative binding affinity of peptide to HLA-DR molecules DRB1*0701 [3]: 167
- Relative binding affinity of peptide to HLA-DR molecules DRB1*0401 [4]: > 145
- Relative binding affinity of peptide to HLA-DR molecules DRB1*0301 [5]: 18
- Relative binding affinity of peptide to HLA-DR molecules DRB1*1202 [6]: 105
- Relative binding affinity of peptide to HLA-DR molecules DRB1*0901 [2]: > 689
- Relative binding affinity of peptide to HLA-DR molecules DRB1*1502 [1]: 1 826
- Relative binding affinity of peptide to HLA-DR molecules DRB1*1501 [7]: 12
- Relative binding affinity of peptide to HLA-DR molecules DRB1*1101 [8]: > 278
- Relative binding affinity of peptide to HLA-DR molecules DRB1*0101 [9]: > 4149

Molecule: 6: SseB overlapping library peptide, residues 51–70 (MVIQAIANNKFIEVQKNAER) [Peptide 6]
- Relative binding affinity of peptide to HLA-DR molecules DRB1*0701 [3]: 2
- Relative binding affinity of peptide to HLA-DR molecules DRB1*0401 [4]: 6
- Relative binding affinity of peptide to HLA-DR molecules DRB1*0301 [5]: > 119
- Relative binding affinity of peptide to HLA-DR molecules DRB1*1202 [6]: 2
- Relative binding affinity of peptide to HLA-DR molecules DRB1*0901 [2]: > 689
- Relative binding affinity of peptide to HLA-DR molecules DRB1*1502 [1]: 577
- Relative binding affinity of peptide to HLA-DR molecules DRB1*1501 [7]: 1
- Relative binding affinity of peptide to HLA-DR molecules DRB1*1101 [8]: 8
- Relative binding affinity of peptide to HLA-DR molecules DRB1*0101 [9]: 235

Molecule: 4: SseB overlapping library peptide, residues 31–50 (DDLSQQNPFAEGYGVLLILL) [Peptide 4]
- Relative binding affinity of peptide to HLA-DR molecules DRB1*0701 [3]: 6
- Relative binding affinity of peptide to HLA-DR molecules DRB1*0401 [4]: > 145
- Relative binding affinity of peptide to HLA-DR molecules DRB1*0301 [5]: > 119
- Relative binding affinity of peptide to HLA-DR molecules DRB1*1202 [6]: > 136
- Relative binding affinity of peptide to HLA-DR molecules DRB1*0901 [2]: 28
- Relative binding affinity of peptide to HLA-DR molecules DRB1*1502 [1]: 55
- Relative binding affinity of peptide to HLA-DR molecules DRB1*1501 [7]: 10
- Relative binding affinity of peptide to HLA-DR molecules DRB1*0101 [9]: 22

Molecule: 3: SseB overlapping library peptide, residues 21–40 (GVSNADTGSQDDLSQQNPFA) [Peptide 3]
- Relative binding affinity of peptide to HLA-DR molecules DRB1*0701 [3]: > 336
- Relative binding affinity of peptide to HLA-DR molecules DRB1*0401 [4]: > 145
- Relative binding affinity of peptide to HLA-DR molecules DRB1*0301 [5]: > 119
- Relative binding affinity of peptide to HLA-DR molecules DRB1*1202 [6]: > 136
- Relative binding affinity of peptide to HLA-DR molecules DRB1*0901 [2]: > 689
- Relative binding affinity of peptide to HLA-DR molecules DRB1*1502 [1]: > 3 333
- Relative binding affinity of peptide to HLA-DR molecules DRB1*1501 [7]: > 270
- Relative binding affinity of peptide to HLA-DR molecules DRB1*0101 [9]: > 4149

Molecule: CC[C@H](C)[C@H](NC(=O)[C@@H](NC(=O)CNC(=O)[C@@H](N)[C@@H](C)O)[C@@H](C)O)C(=O)N[C@@H](CCCCN)C(=O)N[C@@H](CC(C)C)C(=O)N[C@@H](CC(C)C)C(=O)N[C@@H](CC(N)=O)C(=O)N[C@@H](CCC(=O)O)C(=O)N[C@@H](CC(N)=O)C(=O)N[C@@H](CO)C(=O)N[C@@H](Cc1ccc(O)cc1)C(=O)N[C@H](C(=O)N1CCC[C@H]1C(=O)N[C@@H](CCCNC(=N)N)C(=O)O)C(C)C [TFR 141–155, reference compound] (H-TGTIKLLNENSYVPR-OH)
- pIC50 ([6]; DRB1*1202, unlabelled form of the biotinylated peptide, read-out: IC50 of reference peptide): 7.14

Molecule: 7: SseB overlapping library peptide, residues 61–80 (FIEVQKNAERARNTQEKSNE) [Peptide 7]
- Relative binding affinity of peptide to HLA-DR molecules DRB1*0701 [3]: > 336
- Relative binding affinity of peptide to HLA-DR molecules DRB1*0401 [4]: 109
- Relative binding affinity of peptide to HLA-DR molecules DRB1*0301 [5]: 89
- Relative binding affinity of peptide to HLA-DR molecules DRB1*1202 [6]: > 136
- Relative binding affinity of peptide to HLA-DR molecules DRB1*0901 [2]: > 689
- Relative binding affinity of peptide to HLA-DR molecules DRB1*1502 [1]: > 3 333
- Relative binding affinity of peptide to HLA-DR molecules DRB1*1501 [7]: 211
- Relative binding affinity of peptide to HLA-DR molecules DRB1*1101 [8]: > 278

Molecule: CC(C)C[C@H](NC(=O)[C@H](Cc1ccc(O)cc1)NC(=O)[C@H](C)NC(=O)[C@H](CCCNC(=N)N)NC(=O)[C@H](CC(C)C)NC(=O)[C@H](CCC(N)=O)NC(=O)[C@H](CCC(=O)O)NC(=O)[C@H](C)NC(=O)[C@@H](N)CCC(=O)O)C(=O)N[C@@H](CC(=O)O)C(=O)NCC(=O)N[C@H](C(=O)NCC(=O)N[C@H](C(=O)N[C@@H](CCC(=O)O)C(=O)O)C(C)C)[C@@H](C)O [A3 152–166, reference compound]
- pIC50 ([7]; DRB1*15:01, unlabelled form of the biotinylated peptide, read-out: IC50 of reference peptide): 7.43

— article PMC4212957, “The serodominant secreted effector protein of Salmonella, SseB, is a strong CD4 antigen containing an immunodominant epitope presented by diverse HLA class II alleles” (Immunology, 2014)
